{"source": "patent US11261232B2", "about": "“TNFRSF14 / HVEM proteins and methods of use thereof” (MEMORIAL SLOAN KETTERING CANCER CENTER, priority 2015, dated 2022)", "molecules": {"B1": {"name": "sTNFRSF14: Pro37-Val202 soluble HVEM ectodomain polypeptide of SEQ ID NO. 6 (protein, listed as Homo sapiens)", "chain": "PALPSCKEDEYPVGSECCPKCSPGYRVKEACGELTGTVCEPCPPGTYIAHLNGLSKCLQCQMCDPAMGLRASRNCSRTENAVCGCSPGHFCIVQDGDHCAACRAYATSSPGQRVQKGGTESQDTLCQNCPPGTFSPNGTLEECQHQTKCSWLVTKAGAGTSSSHWV"}}, "test_system": "MYC/BCL2 double positive murine lymphoma cells", "assay": "In vivo treatment of engrafted myc-bcl2 murine lymphomas by intratumoral injection", "parameters": "species or system J:Nu nude mice", "experimental": "FIG. 7A-H. The solHVEM (either Leu39-Va1202 or Pro37-Va1202) protein restores tumor suppressive effects of HVEM.\nFIG. 20. sTNFRSF14 inhibits tumor growth in vivo. Xenograft myc-bc12 lymphomas were grown in the flanks of mice. When the tumors reached a volume of approximately 0.5 cm^3 mice were treated every other day by intra-tumoral injection in the flanks with 20 ug/ml of sTNFRSF14diluted in PBS. The control (vehicle) animals were treated with PBS. Tumors were weighed and volumes were measured twice weekly.\nFIG. 21. sTNFRSF14 decreases lymphoma growth in a xenograft model. 5 million myc-Bcl2 cells were mixed with Matrigel and injected subcutaneously into the flanks of mice J:Nu Nude (Foxn1 nu/Foxn1 nu) mice. Animals were sacrificed according to IUCAC protocols. Upon sacrifice tumors were weighed and measured.\nFIG. 22. Exogenous administration of sTNFRSF14 suppresses mouse lymphoma xenografts. Animals were sacrificed on day day 11 and the xenografted tumors were excised from the flanks of the mice. The tumors from each flank—treated (sTNFRSF14) and untreated (vehicle) were weighed. Bars represent the average of n=4 mice.\nFIG. 24. Immunohistochemical analysis of xenograft tumors. Pathological analysis of sTNFRSF14 treated and vehicle treated mouse lymphomas. Tumors were excised from the flanks of the animals and fixed in 4% paraformaldehyde overnight. The tumors were sectioned and stained via IHC for particular tumor markers. Representative staining for HE, TUNEL, and Ki67 is shown.\nBuilding on these findings, experiments were performed to test whether solHVEM would have any single agent activity against lymphomas. First, the expression of the BTLA receptor was characterized across a panel of human and mouse lymphoma (mostly DLBCL) cell lines. […] Next, experiments were performed to test if solHVEM had any effect on established BTLA^hi lymphomas in vivo. Briefly, aggressive MYC/BCL2 double positive murine lymphoma cells that express BTLA (BTLA^hi) were transplanted into the flanks of J:Nu nude mice and mice were treated with 20 μg of solHVEM or vehicle (PBS) every three days for a total four times once the engrafted tumors reached a volume of ˜50 mm3. […] Similar results were obtained both in vitro and in vivo with a different soluble HVEM molecule consisting of the extracellular region from amino acids Pro37 to Va1202 (SEQ ID NO. 6).\nTransplant and treatment studies were generated as previously described (Schatz et al., 2011). In summary, subcutaneous injection of one million myc-bcl2 mouse lymphoma cells combined with Matrigel (BD) in the right and left flanks of mice J:Nu Nude (Foxn1 nu/Foxn1 nu). Once tumors reached 75-mm3 mice were treated every three days by intra tumor injection with 20 m of sHVEM diluted in PBS (right flank) or with vehicle control (left flank). Tumor sizes were measured and recorded every three days. Tumors were weighed after the animals were sacrificed and tumors excised.\nTo study the effects of the sTNFRSF14 polypeptide in vivo, five (5) million myc-bc12 cells were injected into both the right and left flanks of nude mice. Upon formation of palpable tumors treatment was commenced. The treatment comprise injecting mice intra-tumorally with either 20 ug of sTNFRSF14 on the right flank or vehicle on the left flank.", "key": {"[1]": {"details": "20 μg intratumoral every three days"}, "[2]": {"details": "compared to vehicle-treated tumors"}}, "data": [{"molecule": "solHVEM: Leu39-Val202 soluble HVEM ectodomain polypeptide of SEQ ID NO. 8", "values": [{"measurement": "ERK inhibition in tumors by immunoblot", "setting": "[1]", "value": "ERK inhibition"}, {"measurement": "apoptosis by TUNEL stain in tumors", "setting": "[1]", "value": "abundant apoptosis"}, {"measurement": "tumor growth", "setting": "20 μg intratumoral every three days, four times, n=4, p<0.01", "value": "prevented any further tumor growth"}]}, {"molecule": "B1", "values": [{"measurement": "tumor growth", "setting": "20 ug intra-tumoral, right flank, vehicle left flank", "value": "near complete growth delay"}, {"measurement": "tumor weight", "setting": "11 days after treatment initiation, average, 20 ug intra-tumoral", "value": 0.75, "unit": "grams"}, {"measurement": "TUNEL staining in tumors", "setting": "[2]", "value": "higher levels"}, {"measurement": "levels of phosphorylated ERK in tumors", "setting": "[2]", "value": "reduced levels"}, {"measurement": "proliferation marker Ki67 in tumors", "setting": "[2]", "value": "decrease"}]}]}
